Measurements from patent publication US20110065647A1 (BIOSEARCH 2007, published 2011).
Ends that are not written are not given here.

B1: Peptide F (peptide)
peptide: DCLGWFKGCDPDNDKCCEGYKCNRRDKWCKYKLW
modifications: disulfide (positions not given here); not fully specified (bridges); also: three disulphide bridges, probably C1-C4, C2-C5, C3-C6
B2: Peptide A (peptide)
peptide: DDCLGMFSSCDPDNDKCCEGRKCNRKDKWCKYVL-NH2
modifications: disulfide (positions not given here); not fully specified (bridges); also: three disulphide bridges, probably C1-C4, C2-C5, C3-C6
B3: Peptide B (peptide)
peptide: YCQEFLWTCDEERKCCGDMVCRLWCKKRL-NH2
modifications: disulfide (positions not given here); not fully specified (bridges); also: three disulphide bridges, probably C1-C4, C2-C5, C3-C6
B4: Peptide C (peptide)
peptide: ACLGFGEKCNPSNDKCCKSSSLVCSQKHKWCKYGW
modifications: disulfide (positions not given here); not fully specified (bridges); also: three disulphide bridges, probably C1-C4, C2-C5, C3-C6

target: rNaV1.8 channels (rat, UniProt Q62968 1-1956); assay: cell-based or functional assay
Sequence (Q62968 whole entry): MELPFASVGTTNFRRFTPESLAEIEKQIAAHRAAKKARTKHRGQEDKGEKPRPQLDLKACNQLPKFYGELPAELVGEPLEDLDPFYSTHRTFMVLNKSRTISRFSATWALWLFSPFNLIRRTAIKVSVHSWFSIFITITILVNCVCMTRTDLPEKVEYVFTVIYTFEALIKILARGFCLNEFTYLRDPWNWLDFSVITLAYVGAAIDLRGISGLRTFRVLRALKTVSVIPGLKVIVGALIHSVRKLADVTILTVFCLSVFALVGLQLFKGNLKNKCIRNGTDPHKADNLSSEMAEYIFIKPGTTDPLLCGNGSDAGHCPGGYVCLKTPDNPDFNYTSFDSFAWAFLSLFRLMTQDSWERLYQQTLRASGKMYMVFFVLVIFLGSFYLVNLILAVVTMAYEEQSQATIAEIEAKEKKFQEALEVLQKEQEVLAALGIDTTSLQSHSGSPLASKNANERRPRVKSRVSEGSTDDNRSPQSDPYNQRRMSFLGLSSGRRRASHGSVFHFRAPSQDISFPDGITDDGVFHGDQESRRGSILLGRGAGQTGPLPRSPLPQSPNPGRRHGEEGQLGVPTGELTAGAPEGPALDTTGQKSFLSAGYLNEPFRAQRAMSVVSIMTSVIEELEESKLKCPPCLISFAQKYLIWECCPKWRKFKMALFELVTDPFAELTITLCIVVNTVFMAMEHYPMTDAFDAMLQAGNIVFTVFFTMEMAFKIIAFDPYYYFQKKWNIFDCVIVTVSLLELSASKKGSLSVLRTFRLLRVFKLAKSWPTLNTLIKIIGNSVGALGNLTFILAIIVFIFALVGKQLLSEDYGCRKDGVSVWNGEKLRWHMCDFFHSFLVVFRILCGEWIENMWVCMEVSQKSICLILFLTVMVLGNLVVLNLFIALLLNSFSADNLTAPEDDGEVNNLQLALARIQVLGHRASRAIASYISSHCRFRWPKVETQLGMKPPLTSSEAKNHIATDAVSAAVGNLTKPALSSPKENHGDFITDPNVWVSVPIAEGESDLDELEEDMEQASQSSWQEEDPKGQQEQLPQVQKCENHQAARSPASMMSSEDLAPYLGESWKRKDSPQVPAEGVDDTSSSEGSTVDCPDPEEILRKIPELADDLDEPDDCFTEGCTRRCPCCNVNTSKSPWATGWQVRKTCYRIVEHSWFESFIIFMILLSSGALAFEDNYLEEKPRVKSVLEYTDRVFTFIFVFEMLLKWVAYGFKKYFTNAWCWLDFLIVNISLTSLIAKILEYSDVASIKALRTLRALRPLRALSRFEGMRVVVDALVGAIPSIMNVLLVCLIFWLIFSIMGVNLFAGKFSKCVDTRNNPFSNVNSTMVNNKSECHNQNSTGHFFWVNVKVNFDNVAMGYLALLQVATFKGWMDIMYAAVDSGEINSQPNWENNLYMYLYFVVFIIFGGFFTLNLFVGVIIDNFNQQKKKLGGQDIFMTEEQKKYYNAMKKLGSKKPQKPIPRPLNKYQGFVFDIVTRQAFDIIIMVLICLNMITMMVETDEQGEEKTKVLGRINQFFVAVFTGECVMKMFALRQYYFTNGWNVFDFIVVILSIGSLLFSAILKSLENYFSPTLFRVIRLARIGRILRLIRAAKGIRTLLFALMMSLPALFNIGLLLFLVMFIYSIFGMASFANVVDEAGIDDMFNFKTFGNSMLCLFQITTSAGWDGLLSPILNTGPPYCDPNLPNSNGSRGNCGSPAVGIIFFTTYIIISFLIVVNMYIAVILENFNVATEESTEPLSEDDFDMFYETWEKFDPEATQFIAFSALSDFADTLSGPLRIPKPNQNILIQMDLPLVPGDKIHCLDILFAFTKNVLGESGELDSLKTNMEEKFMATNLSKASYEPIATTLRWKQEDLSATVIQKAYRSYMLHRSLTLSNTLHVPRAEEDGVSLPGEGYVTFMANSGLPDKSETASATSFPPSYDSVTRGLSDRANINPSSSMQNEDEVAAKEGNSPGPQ

Row | Binder | IC50 Nav1.8 (µM); inhibition of channel current, patch clamp [µM]
1 | B1 | 0.17
2 | B2 | 2.5

target: rNaV1.3 channels (rat, UniProt P08104 1-1951); assay: cell-based or functional assay
Sequence (P08104 whole entry): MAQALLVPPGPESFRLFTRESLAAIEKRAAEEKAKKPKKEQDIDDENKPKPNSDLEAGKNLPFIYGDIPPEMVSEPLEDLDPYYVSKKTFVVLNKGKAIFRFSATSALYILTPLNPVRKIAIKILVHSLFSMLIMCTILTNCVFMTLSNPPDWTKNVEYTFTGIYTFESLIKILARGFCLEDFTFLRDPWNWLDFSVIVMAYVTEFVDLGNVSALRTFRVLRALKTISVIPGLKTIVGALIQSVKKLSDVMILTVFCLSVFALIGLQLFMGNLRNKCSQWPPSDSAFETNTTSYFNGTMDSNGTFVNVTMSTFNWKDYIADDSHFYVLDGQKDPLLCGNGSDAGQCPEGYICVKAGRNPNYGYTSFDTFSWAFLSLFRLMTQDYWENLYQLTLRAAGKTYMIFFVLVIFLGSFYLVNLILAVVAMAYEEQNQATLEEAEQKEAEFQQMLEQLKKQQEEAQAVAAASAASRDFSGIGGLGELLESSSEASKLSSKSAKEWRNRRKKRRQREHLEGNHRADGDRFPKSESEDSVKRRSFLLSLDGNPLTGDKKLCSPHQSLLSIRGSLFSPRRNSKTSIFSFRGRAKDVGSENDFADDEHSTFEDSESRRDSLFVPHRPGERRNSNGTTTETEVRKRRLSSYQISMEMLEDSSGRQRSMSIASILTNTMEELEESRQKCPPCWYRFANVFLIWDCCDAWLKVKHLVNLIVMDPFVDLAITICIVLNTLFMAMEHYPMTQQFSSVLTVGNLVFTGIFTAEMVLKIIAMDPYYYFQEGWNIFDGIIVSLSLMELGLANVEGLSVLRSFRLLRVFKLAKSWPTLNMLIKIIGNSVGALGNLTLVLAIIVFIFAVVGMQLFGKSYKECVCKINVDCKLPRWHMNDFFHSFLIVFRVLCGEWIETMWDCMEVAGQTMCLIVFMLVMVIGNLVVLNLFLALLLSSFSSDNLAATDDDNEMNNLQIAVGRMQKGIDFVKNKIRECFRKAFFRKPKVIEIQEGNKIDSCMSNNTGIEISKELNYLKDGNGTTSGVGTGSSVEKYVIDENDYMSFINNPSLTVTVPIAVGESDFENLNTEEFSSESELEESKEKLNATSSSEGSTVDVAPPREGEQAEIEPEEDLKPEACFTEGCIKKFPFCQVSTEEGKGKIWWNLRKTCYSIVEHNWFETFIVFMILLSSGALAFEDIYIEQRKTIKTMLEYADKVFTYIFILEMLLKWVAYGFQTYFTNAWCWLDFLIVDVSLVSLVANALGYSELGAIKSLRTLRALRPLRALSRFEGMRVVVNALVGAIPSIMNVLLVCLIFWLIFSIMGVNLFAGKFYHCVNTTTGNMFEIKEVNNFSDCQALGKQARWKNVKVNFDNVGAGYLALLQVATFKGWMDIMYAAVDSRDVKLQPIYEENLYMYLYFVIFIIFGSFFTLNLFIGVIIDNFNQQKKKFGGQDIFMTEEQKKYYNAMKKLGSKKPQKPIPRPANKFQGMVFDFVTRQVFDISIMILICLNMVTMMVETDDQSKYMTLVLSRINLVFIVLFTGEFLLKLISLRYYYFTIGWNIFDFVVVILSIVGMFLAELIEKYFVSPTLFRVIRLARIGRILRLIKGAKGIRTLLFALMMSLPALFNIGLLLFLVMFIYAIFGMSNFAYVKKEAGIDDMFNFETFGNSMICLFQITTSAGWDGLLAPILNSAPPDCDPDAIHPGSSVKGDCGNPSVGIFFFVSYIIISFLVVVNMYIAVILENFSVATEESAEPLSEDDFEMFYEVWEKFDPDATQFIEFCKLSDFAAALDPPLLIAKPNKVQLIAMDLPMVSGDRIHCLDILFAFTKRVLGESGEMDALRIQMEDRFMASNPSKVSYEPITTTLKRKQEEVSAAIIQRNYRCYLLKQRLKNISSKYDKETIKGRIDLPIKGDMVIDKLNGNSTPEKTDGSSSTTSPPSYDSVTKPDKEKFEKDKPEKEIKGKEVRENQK

Row | Binder | IC50 Nav1.3 (µM); inhibition of channel current, patch clamp [µM]
3 | B3 | 0.23
4 | B1 | 0.13
5 | B2 | 1.75
6 | B4 | 1.2
